Molecular target: T1, BMP-2 (Homo sapiens, UniProt P12643)
T1 sequence (P12643 283-396): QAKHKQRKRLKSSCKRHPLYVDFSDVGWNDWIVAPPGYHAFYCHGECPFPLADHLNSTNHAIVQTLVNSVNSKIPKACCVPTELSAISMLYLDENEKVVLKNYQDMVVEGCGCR
Test: Inhibition of BMP-2 effects by SPP-24
Settings: 50-fold (w/w) excess of SPP-24
Description: Lyophilized SPP-24 is ground into a fine powder and combined with DBM. […] However, concentrations of growth factors in DBM vary by lot and preparation methodology. For example, Wildemann et al. reports BMP-2 concentrations of 0.004 g BMP-2 per gram total protein. Wildemann et al. (2007) Quantification of various growth factors in different demineralized bone matrix preparations. J. of Biomed. Mat. Res. Part A. 81A(2): 437-442. Thus, SPP to DBM ratios range from about 1:10 to about 2:1, for example, about 1:10, about 1:8, about 1:7, about 1:6, about 1:5, about 1:4, about 1:3, about 1:2, about 1:1, and about 2:1.

B1: secreted phosphoprotein 24 (protein, UniProt Q13103 30-211, looked up)
Secreted phosphoprotein 24: FPVYDYDPSSLRDALSASVVKVNSQSLSPYLFRAFRSSLKRVEVLDENNLVMNLEFSIRETTCRKDSGEDPATCAFQRDYYVSTAVCRSTVKVSAQQVQGVHARCSWSSSTSESYSSEEMIFGDMLGSHKWRNNYLFGLISDESISEQFYDRSLGIMRRVLPPGNRRYPNHRHRARINTDFE
notes: BMP-2 antagonist
With B1 the “effects of BMP-2” value was “completely ablates”.
